Laboratory results published in patent US9096835B2, “DNA polymerase” (Medical Research Council, priority 2003, dated 2015).

Key:
Type in all cases: biochemical
PCR with Biotin-16-dUTP = details: 50 cycle PCR, complete replacement
Description: A PCR assay was used to screen and rank clones. Briefly, clones were normalized for activity in PCR with matched primers 3, 4 and activity with mismatched primers 1 and 2 (1 μM each) determined at minimal cycle number (15-25 cycles). Extension capability for different mismatches was determined by the same assay using mismatch primers 2 (C•C mismatch), 5 (A•A mismatch), 6 (G•G mismatch), 7 (G•A mismatch) with matched primer 3 or primer 1 (A•G mismatch) with matched primer 4. Incorporation of unnatural substrates in 50 cycle PCR was carried out using standard conditions and 50 μM […] dNTPs (Promega) or 50 μM FITC-12-dATP (Perkin-Elmer), Rhodamine-5-dUTP (Perkin-Elmer) or Biotin-16-dUTP (Roche) with equivalent amounts of the other 3 dNTPs (all 50 μM). Long PCR was carried out using a two-step cycling protocol as described (22) 94° C. for 2 minutes, followed by 20 cycles of (94° C. 15 sec, 68° C. 30 min) using 5 ng of phage λ DNA (New England Biolabs) template and either primers 9, 10, 11 with primer 12 or primer 13 with primers 10, 14.

[1] = tested on: template containing a single 5-nitroindole; assay: 5NI replication assay; details: primer extension, 60° C.
Description: Primer 26 was ^32P-labeled and annealed to template primer 27 (containing a single 5-nitroindole) in 1× Taq buffer, 0.1 or 0.5 U of the polymerase was added and reactions incubated at 60° C. for 15 mins, after which 40 μM of each dNTP were added and incubation at 60° C. continued for various times.

[2] = tested on: abasic sites and 5-hydroxy hydantoins; assay: Hairpin ELISA lesion bypass screen; details: ELISA based activity screen
Text: The below protocol is a sensitive method to measure polymerase activity both for the incorporation of unnatural nucleotide substrates (added to the reaction mixture) or the extension or replication of unnatural nucleotide substrates (incorporated as part of the hairpin oligo).
The assay comprises a hairpin oligonucleotide which constitutes both primer and template in one. In contains as part of the hairpin a biotinylated dU residue, which allows capture of the hairpin oligonucleotide on streptavidin-coated surfaces.
The oligonucleotide folds up into a hairpin with a 5′ overhang, which serves as the template strand for the polymerase (typical sequence: 5′-AGCTACCATGCCTGCACGCAGTCGGCATCCGTCGCGACCACG TT5 TTCGTGGTCGCGACGGATGCCG-3′ (SEQ ID NO: 52), bases involved in hairpin formation are underlined, 3′ base is in bold, 5=dU-biotin).
Extension reactions are carried out in the presence of small amounts of a labelled nucleotide typically DIG-16-dUTP. Product is captured (for example on a streptavidin coated ELISA plate) and incorporation of labelled nucleotide into the product strand is measured (using for example an anti-DIG antibody) and taken as a measure of polymerase activity. […]

wtTaq: Thermus aquaticus (Taq) wild type DNA polymerase [reference compound]
PCR amplification with Biotin-16-dUTP (PCR with Biotin-16-dUTP): unable to generate any amplification products

B1: M1: Taq mutant G84A, D144G, K314R, E520G, F598L, A608V, E742G; SEQ ID NO: 1 (protein)
chain: MRGMLPLFEPKGRVLLVDGHHLAYRTFHALKGLTTSRGEPVQAVYGFAKSLLKALKEDGDAVIVVFDAKAPSFRHEAYGGYKAARAPTPEDFPRQLALIKELVDLLGLARLEVPGYEADDVLASLAKKAEKEGYEVRILTADKGLYQLLSDRIHVLHPEGYLITPAWLWEKYGLRPDQWADYRALTGDESDNLPGVKGIGEKTARKLLEEWGSLEALLKNLDRLKPAIREKILAHMDDLKLSWDLAKVRTDLPLEVDFAKRREPDRERLRAFLERLEFGSLLHEFGLLESPKALEEAPWPPPEGAFVGFVLSRREPMWADLLALAAAAGGRVHRAPEPYKALRDLKEARGLLAKDLSVLALREGLGLPPGDDPMLLAYLLDPSNTTPEGVARRYGGEWTEEAGERAALSERLFANLWGRLEGEERLLWLYREVERPLSAVLAHMEATGVRLDVAYLRALSLEVAEEIARLEAEVFRLAGHPFNLNSRDQLERVLFDELGLPAIGKTEKTGKRSTSAAVLGALREAHPIVEKILQYRELTKLKSTYIDPLPDLIHPRTGRLHTRFNQTATATGRLSSSDPNLQNIPVRTPLGQRIRRAFIAEEGWLLVVLDYSQIELRVLAHLSGDENLIRVFQEGRDIHTETASWMFGVPREAVDPLMRRAAKTINFGVLYGMSAHRLSQELAIPYEEAQAFIERYFQSFPKVRAWIEKTLEEGRRRGYVETLFGRRRYVPDLEARVKSVRGAAERMAFNMPVQGTAADLMKLAMVKLFPRLEEMGARMLLQVHDELVLEAPKERAEAVARLAKEVMEGVYPLAVPLEVEVGIGEDWLSAKE
modifications: Mutant Thermus aquaticus DNA polymerase
bypass of template strand 5NI [1]: efficiently bypass template strand 5NI
size of amplification products fully labelled with Biotin-16-dUTP (PCR with Biotin-16-dUTP): 2.7 kb

B2: M4: Taq mutant D58G, R74P, A109T, L245R, R343G, G370D, E520G, N583S, E694K, A743P; SEQ ID NO 2 (protein)
chain: MRGMLPLYEPKGRVLLVDGHHLAYRTFHALKGLTTSRGEPVQAVYGFAKSLLKALKEGGDAVIVVFDAKAPSFPHEAYGGYKAGRAPTPEDFPRQLALIKELVDLLGLTRLEVPGYEADDVLASLAKKAEKEGYEVRILTADKDLYQLLSDRIHVLHPEGYLITPAWLWEKYGLRPDQWADYRALTGDESDNLPGVKGIGEKTARKLLEEWGSLEALLKNLDRLKPAIREKILAHMDDLKLSWDRAKVRTDLPLEVDFAKRREPDRERLRAFLERLEFGSLLHEFGLLESPKALEEAPWPPPEGAFVGFVLSRKEPMWADLLALAAARGGRVHRAPEPYKALGDLKEARGLLAKDLSVLALREGLGLPPDDDPMLLAYLLDPSNTTPEGVARRYGGEWTEEAGERAALSERLFANLWGRLEGEERLLWLYREVERPLSAVLAHMEATGVRLDVAYLRALSLEVAEEIARLEAEVFRLAGHPFNLNSRDQLERVLFDELGLPAIGKTEKTGKRSTSAAVLGALREAHPIVEKILQYRELTKLKSTYIDPLPDLIHPRTGRLHTRFNQTATATGRLSSSDPNLQSIPVRTPLGQRIRRAFIAEEGWLLVALDYSQIELRVLAHLSGDENLIRVFQEGRDIHTETASWMFGVPREAVDPLMRRAAKTINFGVLYGMSAHRLSQELAIPYEEAQAFIKRYFQSFPKVRAWIEKTLEEGRRRGYVETLFGRRRYVPDLEARVKSVREPAERMAFNMPVQGTAADLMKLAMVKLFPRLEEMGARMLLQVHDELVLEAPKERAEAVARLAKEVMEGVYPLAVPLEVEVGIGEDWLSAKE
modifications: Mutant Thermus aquaticus DNA polymerase
bypass of template strand 5NI [1]: efficiently bypass template strand 5NI

B3: 3D1: third round clone, four mismatch extension; SEQ ID NO: 98 (protein)
chain: MAMLPLFEPKGRVLLVDGHHLAYRTFFALKGPTTSRGEPVQVVYGFAKSLLKALKEDGYKAVFVVFDAKAPSFRHKAYEAYRAGRAPTPEDFPRQLALIKELVDLLGFTRLEVPGYEADDVLATLAKKAEKEGYEVRILTADRGLYQLVSDRVAVLHPEGHLITPEWLWEKYGLRPEQWVDFRALVGDPSDNLPGVKGIGEKTALKLLKEWGSLENLLKNLDRVKPENVREKIKAHLEDLRLSLELSRVRTDLPLEVDLAQRREPDREGLRAFLERLEFGSLFHEFGLLESPKALEEAPWPPPEGAFVGFVLSRKEPMWADLLALAAARGGRVHRAPEPYKALRDLKEARGLLAKDLSVLALREGLGLPPGDDPMLLAYLLDPSNTTPEGVARRYGGEWTEEAGERAALSERLFANLWGRLEGEERLLWLYREVERPLSAVLAHMEATGVRLDVAYLRALSLEVAEEIARLEAEVFRLAGHPFNLNSRDQLEMVLFDELRLPALGKTQKTGKRSTSAAVLEALREAHPIVEKILQYRELTKLKSTYIDPLSDLIHPRTGRLHTRFNQTATATGRLSSSDPNLQNIPVRTPLGQRIRRAFIAEEGWLLVVLDYSQIELRVLAHLSGDENLIRVFQEGRDIHTETASWMFGVPREAVDPLMRRAAKTINFGVLYGMSAHRLSQELAIPYEEAQAFIERYFQSFPKVRAWIEKTLEEGRRRGYVETLFGRRRYVPDLEARVKSVREAAERMAFNMPVQGTAADLMKLAMVKLFPRLGETGARMLLQVHDELVLEAPKERAEAVARLAKEAMEGVYPLAVPLEVEVGIGEDWLSAKG
modifications: Mutant Taq polymerase
proficiency at lesion bypass compared with wild type Taq [2]: up to two orders of magnitude
